Measured values from paper PMC5120336, “The N-terminal loop of IRAK-4 death domain regulates ordered assembly of the Myddosome signalling scaffold” (Scientific Reports, 2016).

B1: MyD88 containing the death domain and intermediate domain (aa 1 to 158) (domain or fragment, human, UniProt Q99836 1-158, looked up)
chain: MAAGGPGAGSAAPVSSTSSLPLAALNMRVRRRLSLFLNVRTQVAADWTALAEEMDFEYLEIRQLETQADPTGRLLDAWQGRPGASVGRLLELLTKLGRDDVLLELGPSIEEDCQKYILKQQQEEAEKPLQVAAVDSSVPRTAELAGITTLDDPLGHMP
notes: MyD88, human, death domain and intermediate domain, aa 1 to 158; Alone it elutes as a dimer (35 kDa) on size exclusion; also called MyD88 DD; MyD88 death domain; source: E. coli BL21 Star (DE3), purified (GSTrap with on-column Tev cleavage, HisTrap, Superdex 75); not shown: 6xHis-GST, N-terminal, cleaved
B2: IRAK-4 kinase dead mutant (KK213AA) (LUMIER construct) (natural protein, human, UniProt Q9NWZ3 1-460, looked up)
chain: MNKPITPSTYVRCLNVGLIRKLSDFIDPQEGWKKLAVAIKKPSGDDRYNQFHIRRFEALLQTGKSPTSELLFDWGTTNCTVGDLVDLLIQNEFFAPASLLLPDAVPKTANTLPSKEAITVQQKQMPFCDKDRTLMTPVQNLEQSYMPPDSSSPENKSLEVSDTRFHSFSFYELKNVTNNFDERPISVGGNKMGEGGFGVVYKGYVNNTTVAVAALAAMVDITTEELKQQFDQEIKVMAKCQHENLVELLGFSSDGDDLCLVYVYMPNGSLLDRLSCLDGTPPLSWHMRCKIAQGAANGINFLHENHHIHRDIKSANILLDEAFTAKISDFGLARASEKFAQTVMTSRIVGTTAYMAPEALRGEITPKSDIYSFGVVLLEIITGLPAVDEHREPQLLLDIKEEIEDEEKTIEDYIDKKMNDADSTSVEAMYSVASQCLHEKKNKRPDIKKVQQLLQEMTAS
notes: IRAK-4, human; also called kinase dead IRAK-4; KD

Legend:
[1] = target: the molecule itself; assay: SEC; Myddosome assembly assay: death domains alone or mixed 1:1, concentrated to 0.5 mg.ml^-1, calibrated TSKgel SuperSW3000 analytical size exclusion column, 0.3 ml.min^-1, peaks analysed by reducing SDS-PAGE
MyD88 (LUMIER construct) = target: T1, MyD88 (LUMIER construct) (human, UniProt Q99836 1-296); assay: LUMIER; affinity purification of Protein A tagged proteins on magnetic IgG beads (Dynabeads M-280, sheep anti-rabbit IgG); co-purified protein detected by Renilla luciferase activity; conditions: partners not purified
T1 construct: MyD88, human

Binder	stoichiometry N [1]	fold binding against wild-type IRAK-4 (MyD88 (LUMIER construct))
B1	2	–
B2	–	~5 fold
